# Laboratory results taken from patent US20240100176A1 (Eli Lilly, published 2024).
# T1: hexahistidine-tagged human IL-4Rα extracellular domain (human, UniProt P24394 26-232)
# T1 construct: In the MSD assay the plate coat is the His-tagged ECD; also called human IL-4Rα ECD; Wild type receptor; not shown: hexahistidine tag
# T1 sequence: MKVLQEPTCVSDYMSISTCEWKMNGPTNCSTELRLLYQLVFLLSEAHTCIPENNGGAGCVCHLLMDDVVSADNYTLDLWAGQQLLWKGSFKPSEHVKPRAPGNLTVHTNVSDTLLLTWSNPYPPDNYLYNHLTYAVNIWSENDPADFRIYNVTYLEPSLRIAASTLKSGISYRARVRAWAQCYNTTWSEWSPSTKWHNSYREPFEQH
# T2: hexahistidine-tagged cynomolgus monkey IL-4Rα extracellular domain (cynomolgus monkey, UniProt P24394 26-231 (human entry))
# T2 construct: also called cynomolgus monkey IL-4Rα ECD; not shown: hexahistidine tag
# T2 chain: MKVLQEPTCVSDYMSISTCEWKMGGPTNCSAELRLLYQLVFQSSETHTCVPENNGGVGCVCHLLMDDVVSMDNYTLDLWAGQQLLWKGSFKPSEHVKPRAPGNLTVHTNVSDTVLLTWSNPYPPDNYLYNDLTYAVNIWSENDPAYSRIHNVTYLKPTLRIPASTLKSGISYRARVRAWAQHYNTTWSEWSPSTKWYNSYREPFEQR
# T3: human IL-4Rα on cells (human PBMC B cells and CD4+ T cells, Daudi cells, HEK-Blue IL-4/IL-13 cells, myeloid … (human, UniProt P24394 26-825))
# T3 sequence: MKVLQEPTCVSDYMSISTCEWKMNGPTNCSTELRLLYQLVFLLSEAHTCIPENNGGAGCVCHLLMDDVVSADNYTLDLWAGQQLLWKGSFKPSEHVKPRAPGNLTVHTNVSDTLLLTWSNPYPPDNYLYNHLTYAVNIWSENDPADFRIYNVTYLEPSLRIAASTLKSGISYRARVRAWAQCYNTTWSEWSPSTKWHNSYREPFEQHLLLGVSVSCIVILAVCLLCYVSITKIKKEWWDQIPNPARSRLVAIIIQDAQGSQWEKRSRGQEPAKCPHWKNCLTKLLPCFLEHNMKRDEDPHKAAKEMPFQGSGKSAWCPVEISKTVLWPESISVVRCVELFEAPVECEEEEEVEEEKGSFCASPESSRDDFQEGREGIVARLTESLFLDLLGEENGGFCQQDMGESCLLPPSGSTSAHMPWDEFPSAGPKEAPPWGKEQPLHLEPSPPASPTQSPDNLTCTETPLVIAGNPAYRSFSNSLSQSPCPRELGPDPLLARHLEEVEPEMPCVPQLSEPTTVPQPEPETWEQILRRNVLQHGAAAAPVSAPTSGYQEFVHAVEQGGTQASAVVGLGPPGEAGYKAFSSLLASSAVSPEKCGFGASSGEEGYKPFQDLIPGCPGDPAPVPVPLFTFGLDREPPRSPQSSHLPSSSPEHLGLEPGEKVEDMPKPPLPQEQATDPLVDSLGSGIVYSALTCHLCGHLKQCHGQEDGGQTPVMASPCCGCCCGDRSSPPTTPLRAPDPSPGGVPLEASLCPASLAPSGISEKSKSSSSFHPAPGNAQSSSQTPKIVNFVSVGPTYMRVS
# Tests used:
# [1] = target: T1, hexahistidine-tagged human IL-4Rα …; assay: competition MSD ELISA (solution equilibrium, 37 °C), apparent KD, single experiment
# Protocol: (§1) Example 3a. […] A 96-well multi-array plate (Meso Scale Diagnostics, Cat. #L15XA-3) was coated at 4° C. overnight with 0.5 μg/mL hexahistidine-tagged human or cynomolgus monkey IL-4Rα ECD in phosphate buffered saline (PBS). Following coating, plates were washed 10 times with 200 μL PBST (PBS with 0.05% Tween® 20) and blocked with 300 μL/well of PBS casein blocking buffer (Pierce, Cat. #37528) at 37° C. for 1 hour. Plates were then washed 10 times as above, and 50 μL of the preincubated antibody:IL-4Rα dilution series was transferred to the wells and incubated at 37° C. with 300 rpm shaking for […]. Plates were washed 10 times with PBST, 50 μL of 1 μg/mL anti-human antibody sulfo-tag 20 (Meso Scale Diagnostics, Cat. #R32AJ-1) was added to the plates for the assay of Table 7a, and anti-Human NHP Kappa Light chain SULFO-TAG 20 (Meso Scale Diagnostics, Cat #D20TF-6) was added to the plates for the assay of Table 7b, and plates were incubated at 37° C. with 300 rpm shaking for 30 minutes. Plates were washed 10 times with PBST, 150 μL/well of 1× Read Buffer T was added to the wells and analyzed on a SECTOR® Imager 6000 (Meso Scale Diagnostics) 15 min after buffer addition. The apparent KD is determined by fitting a sigmoidal curve to the electrochemiluminescence (ECL) response vs. log (soluble IL-4Rα concentration) using GraphPad Prism 9. Data is graphed with normalized ECL values.
# [2] = target: T2, hexahistidine-tagged cynomolgus monkey …; assay: as above
# Protocol: as §1
# [3] = target: T4, hexahistidine tagged human IL-4Rα ECD T108R (human, UniProt P24394 26-232); assay: capture ELISA: Ab1 on anti-human IgG Fc, His-tagged receptor at 0.2 µg/mL, anti-His HRP
# T4 construct: also called D108R; not shown: hexahistidine tag
# T4 sequence (P24394 26-232 T133R): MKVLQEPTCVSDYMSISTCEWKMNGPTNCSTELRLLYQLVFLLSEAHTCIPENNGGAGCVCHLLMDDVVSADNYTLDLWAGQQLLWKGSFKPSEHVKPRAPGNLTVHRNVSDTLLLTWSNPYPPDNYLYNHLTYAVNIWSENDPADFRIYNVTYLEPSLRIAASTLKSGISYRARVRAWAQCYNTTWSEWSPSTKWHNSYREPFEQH
# [4] = target: T3, human IL-4Rα on cells (human PBMC B …); assay: cell-based or functional assay
Kd [1] [nM],Kd [2] [nM],ELISA (OD450) [3] [OD450],"Inhibition of IL-4 induced B cell proliferation, IC50 [4] [nM]",Binder
0.0208,0.0233,1.82,–,"anti-human IL-4Rα antibody Ab1 (antibody, human IgG4 S228P, kappa, human kappa light chain; also called anti-human IL-4Rα Ab1; unconjugated Ab1) heavy: QVQLVESGGGLVQPGGSLRLSCVASGFTFSHSSMNWVRQAPGKGLEWVSYISRATGAVYYADSVKGRFTISRDNAKNSLYLQMNSLRDEDTAVYYCAREPVFDYWGQGTLVTVSSASTKGPCVFPLAPCSRSTSESTAALGCLVKDYFPEPVTVSWNSGALTSGVHTFPAVLQSSGLYSLSSVVTVPSSSLGTKTYTCNVDHKPSNTKVDKRVESKYGPPCPPCPAPEFLGGPSVFLFPPKPKDTLMISRTPEVTCVVVDVSQEDPEVKFNWYVDGVEVHNAKTKPREEQFNSTYRVVSVLTVLHQDWLNGKEYKCKVSNKGLPSSIEKTISKAKGQPREPQVYTLPPSREEMTKNQVSLTCLVKGFYPSDICVEWESNGQPENNYKTTPPVLDSDGSFFLYSRLTVDKSRWQQGNVFSCSVMHEALHNHYTQKSLSLSLG light: DIQMTQSPSAMSASVGDRVTITCRASQDISNYLAWFQQKPGKVPTRLIYAASSLQSGVPSRFSGSGSGTEFTLTISSLQPEDFATYYCLQWSSYPRTFGQGTKVEIKRTVAAPSVFIFPPSDEQLKSGTASVVCLLNNFYPREAKVQWKVDNALQSGNSQESVTEQDSKDSTYSLSSTLTLSKADYEKHKVYACEVTHQGLSSPVTKSFNRGEC"
–,–,–,1.41,"anti-human IL-4Rα Ab1 GC conjugate of Example 1b (n=4) (antibody, human IgG4 S228P, kappa, glucocorticoid receptor agonist payload-linker (GC-L, Preparation 8) conjugated to the engineered cysteines at the 124 and 378 position of the heavy chain (EU numbering); n is 4 (average DAR 4.17 by RP-HPLC, 3.85 by TOF MS)) heavy: QVQLVESGGGLVQPGGSLRLSCVASGFTFSHSSMNWVRQAPGKGLEWVSYISRATGAVYYADSVKGRFTISRDNAKNSLYLQMNSLRDEDTAVYYCAREPVFDYWGQGTLVTVSSASTKGPCVFPLAPCSRSTSESTAALGCLVKDYFPEPVTVSWNSGALTSGVHTFPAVLQSSGLYSLSSVVTVPSSSLGTKTYTCNVDHKPSNTKVDKRVESKYGPPCPPCPAPEFLGGPSVFLFPPKPKDTLMISRTPEVTCVVVDVSQEDPEVKFNWYVDGVEVHNAKTKPREEQFNSTYRVVSVLTVLHQDWLNGKEYKCKVSNKGLPSSIEKTISKAKGQPREPQVYTLPPSREEMTKNQVSLTCLVKGFYPSDICVEWESNGQPENNYKTTPPVLDSDGSFFLYSRLTVDKSRWQQGNVFSCSVMHEALHNHYTQKSLSLSLG light: DIQMTQSPSAMSASVGDRVTITCRASQDISNYLAWFQQKPGKVPTRLIYAASSLQSGVPSRFSGSGSGTEFTLTISSLQPEDFATYYCLQWSSYPRTFGQGTKVEIKRTVAAPSVFIFPPSDEQLKSGTASVVCLLNNFYPREAKVQWKVDNALQSGNSQESVTEQDSKDSTYSLSSTLTLSKADYEKHKVYACEVTHQGLSSPVTKSFNRGEC"
